Assay results taken from article PMC3327674, “Structural and Functional Characterization of Mature Forms of Metalloprotease E495 from Arctic Sea-Ice Bacterium Pseudoalteromonas sp. SM495” (PLoS ONE, 2012).

B1: GST-fused PPC2 domain of metalloprotease E495 F5A (protein)
chain: GWTRATQNLDAGYSSLDISMAGGSGDADLYVNFGSASSTSSYECRPYKNGNVETCTIENPQAGTWYIDLQG
B2: GST-fused PPC1 domain of metalloprotease E495 F5A (protein)
chain: EQLFATLDVPAGASNLVFNTNGGSGDADLYVRFGSKPTLSTYDCNSTTSTSTESCSIGSAQAGTYYVMVEA

Molecular target: C-phycocyanin, Q54715;Q54714
Test: SPR
Settings: chain shown with the change, 2 µM analyte, 20 µl/min, 25°C, CPC-coated chip, read off a plot

Row | response (parent: est. 53) | response (parent: est. 57) | Binder
1 | 35 RU |  | B1
2 |  | 33 RU | B2
